Data taken from patent publication US20140120095A1 (Boehringer Ingelheim, published 2014).
Residue numbers refer to the chain shown, from its start.

Assays:
[1] = target: T1, recombinant human DLL4 (human, UniProt Q9NR61 25-522); assay: Biacore off-rate, periplasmic extract
T1 construct: also called rhDLL4; hDLL4

[2] = target: T2, human DLL4 overexpressed on cells (human, UniProt Q9NR61 27-685); assay: FMAT, labelled hNotch1-Fc on CHO-hDLL4, periplasmic extract
T2 construct: full length human DLL4 on CHO or HEK293 cells; also called CHO-hDLL4; CHO-hDII4
Description: (§1) All calculations are based on the FL1_total signal which comprises the average of the fluorescence per well times the number of counts per well.

[3] = target: T3, mouse DLL4 overexpressed on cells (mouse, UniProt Q9JI71 27-686); assay: FMAT, labelled hNotch1-Fc on CHO-mDLL4, periplasmic extract
T3 construct: whole, on cells; also called CHO-mDLL4; CHO-mDII4
T3 sequence (Q9JI71 27-686): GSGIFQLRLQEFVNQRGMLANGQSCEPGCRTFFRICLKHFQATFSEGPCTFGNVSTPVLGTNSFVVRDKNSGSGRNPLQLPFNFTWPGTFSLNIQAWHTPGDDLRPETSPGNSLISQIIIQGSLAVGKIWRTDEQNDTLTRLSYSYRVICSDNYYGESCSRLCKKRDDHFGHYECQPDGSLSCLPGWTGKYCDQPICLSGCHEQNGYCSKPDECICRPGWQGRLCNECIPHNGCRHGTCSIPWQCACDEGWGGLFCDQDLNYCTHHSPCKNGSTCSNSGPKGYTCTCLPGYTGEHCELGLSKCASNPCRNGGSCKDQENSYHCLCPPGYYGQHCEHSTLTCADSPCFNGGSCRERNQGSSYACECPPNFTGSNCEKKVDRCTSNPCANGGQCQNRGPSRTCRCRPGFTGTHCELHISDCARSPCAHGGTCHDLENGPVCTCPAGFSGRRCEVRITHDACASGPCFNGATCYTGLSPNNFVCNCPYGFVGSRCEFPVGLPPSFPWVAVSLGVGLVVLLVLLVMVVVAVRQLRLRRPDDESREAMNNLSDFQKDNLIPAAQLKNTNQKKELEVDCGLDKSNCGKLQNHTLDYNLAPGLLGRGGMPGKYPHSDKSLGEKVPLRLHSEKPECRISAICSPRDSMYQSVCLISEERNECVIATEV
Description: as §1

[4] = target: T4, recombinant human DLL4 (C-terminally His-tagged extracellular domain, R&D Systems) (human, UniProt Q9NR61 25-522, biotinylated in the competition ELISA); assay: SPR (Biacore), recombinant human DLL4
T4 construct: also called rhDLL4; hDLL4
Procedure: (§2) Kinetic analysis to determine the affinity of the DII4-VHH interaction is performed by Surface Plasmon Resonance (SPR) on a Biacore T100 instrument. […] Purified VHHs or Fab fragment are injected for 2 minutes at different concentrations (between 10 and 300 nM) and allowed to dissociate for 20 min at a flow rate of 45 μl/min. Between sample injections, the surfaces are regenerated with 10 mM glycine pH1.5 and 100 mM HCl. HBS-N (Hepes buffer pH7.4) is used as running buffer. If possible, data are evaluated by fitting a 1:1 interaction model (Langmuir binding) onto the binding curves. The affinity constant KD is calculated from resulting association and dissociation rate constants (kₐ) and […].

[5] = target: T5, human DLL4 expressed on cells (CHO-hDLL4; HEK293-hDLL4) (human, UniProt Q9NR61 27-685); assay: competition FMAT, labelled hNotch1-Fc on CHO-hDLL4 cells
T5 construct: full length human DLL4 overexpressed on CHO cells (FMAT, FACS) or HEK293 cells (reporter assay)

[6] = target: T4, recombinant human DLL4 (C-terminally …); assay: competition ELISA, biotinylated hDLL4 to coated hNotch1-Fc
[7] = target: T5, human DLL4 expressed on cells …; assay: cell-based or functional assay
[8] = target: T4, recombinant human DLL4 (C-terminally …); assay: competition ELISA hDLL4/hNotch1-Fc; summary table
[9] = target: T4, recombinant human DLL4 (C-terminally …); assay: SPR (Biacore); summary table
[10] = target: T6, recombinant mouse DLL4 (C-terminally His-tagged extracellular domain, R&D Systems) (mouse, UniProt Q9JI71 27-532); assay: ProteOn off-rate screen, periplasmic extract, coated mouse DLL4
T6 construct: extracellular domain; also called rmDLL4; mDLL4
T6 sequence (Q9JI71 27-532): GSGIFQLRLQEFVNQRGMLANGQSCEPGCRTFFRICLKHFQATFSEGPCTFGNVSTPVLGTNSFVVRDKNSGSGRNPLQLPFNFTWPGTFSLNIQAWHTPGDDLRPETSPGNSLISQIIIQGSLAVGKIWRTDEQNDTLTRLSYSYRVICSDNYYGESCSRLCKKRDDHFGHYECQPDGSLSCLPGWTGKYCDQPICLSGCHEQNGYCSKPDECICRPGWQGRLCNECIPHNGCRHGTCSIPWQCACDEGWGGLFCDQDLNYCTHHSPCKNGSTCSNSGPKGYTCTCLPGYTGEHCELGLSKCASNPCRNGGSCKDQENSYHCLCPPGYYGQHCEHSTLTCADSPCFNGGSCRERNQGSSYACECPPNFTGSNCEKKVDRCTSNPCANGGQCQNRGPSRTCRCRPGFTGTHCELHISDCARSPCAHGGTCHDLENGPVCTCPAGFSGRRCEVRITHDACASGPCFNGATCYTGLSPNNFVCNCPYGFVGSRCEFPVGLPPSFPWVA
Procedure: (§3) In a first cycle, amino acid substitutions are introduced randomly in both framework (FW) and complementary determining regions (CDR) using the error-prone PCR method. […] After a polish step, PCR products are inserted via unique restriction sites into a vector designed to facilitate phage display of the VHH library. Consecutive rounds of in-solution selections are performed using decreasing concentrations of biotinylated recombinant human DLL4 (biot-rhDLL4) and trypsin elutions. Affinity-driven selections in a third round using cold rhDLL4 (at least 100× excess over biot-rhDLL4) are also performed. No selections on murine DLL4 are included as (conservation of) cross-reactivity is assessed at the screening level. Individual mutants are produced as recombinant protein using an expression vector derived from pUC119, which contains the LacZ promoter, a resistance gene for ampicillin, a multiple cloning site and an ompA leader sequence (pAX50). E. coliTG1 cells are transformed with the expression vector library and plated on agar plates (LB+Amp+2% glucose). Single colonies are picked from the agar plates and grown in 1 mL 96-deep-well plates. VHH expression is induced by adding IPTG (1 mM). Periplasmic extracts (in a volume of ˜80 uL) are prepared according to standard methods and screened for binding to recombinant human and mouse DII4 in a ProteOn (BioRad, Hercules, Calif., USA) off-rate assay. In brief, a GLC ProteOn Sensor chip is coated with recombinant human DII4 on the “ligand channels” L2 and L4 (with L1/L3 as reference channel), while “ligand channels” […] is coated with mouse DII4. Periplasmic extract of affinity-matured clones is diluted 1/10 and injected across the “analyte channels” A1-A6. An average off-rate is calculated of the wild type clones present in the plate and served as a reference to calculate off-rate improvements.

[11] = target: T4, recombinant human DLL4 (C-terminally …); assay: SPR (Biacore), rhDLL4
Procedure: as §2

[12] = target: T4, recombinant human DLL4 (C-terminally …); assay: ProteOn off-rate screen, periplasmic extract, coated human DLL4
Procedure: as §3

[13] = target: T7, recombinant human VEGF165 (human, UniProt P15692-4 27-191, biotinylated in the competition assays); assay: AlphaScreen, hVEGF165/hVEGFR2-Fc competition; parameters: % inhibition: concentration or dose not given beside the values
T7 construct: Bought protein; also called hVEGF165; rhVEGF165
T7 sequence (P15692 other isoform, or with tags, fused parts or gaps): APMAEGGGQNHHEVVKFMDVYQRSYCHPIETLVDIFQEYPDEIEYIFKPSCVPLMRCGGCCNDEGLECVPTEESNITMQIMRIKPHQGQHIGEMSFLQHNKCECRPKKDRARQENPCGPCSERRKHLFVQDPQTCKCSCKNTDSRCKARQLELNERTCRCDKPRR

B1: DLLBII58A11 (VHH)
VHH: EVQLVESGGGLVQAGGSLRLSCTTSERTVSRYSMGWFRQAPGKEREAVATISWSGDSTYYADSVKGRFTISRDNTKNTLYLQIDSLKPEDTAVYYCVAKPNLKYGSYWPPRGYDYWGQGTQVTVSS
In the case of B1, the koff [1] is reported as 0.0016 s⁻¹, the “% inh” value [2] is reported as 95% and the “% inh” value [3] is reported as 73%.

B2: DLLBII104C04 (VHH)
VHH: EVQLVESGGGLVQAGGSLRLSCAAAGSTFSSYVMGWYRQAPGKQRELVAHISTRGITYYADSVKGRFTISRDNAKNTMYLQMNSLKPEDTAVYYCNTRRNFLSNYWGQGTQVTVSS
With B2 the koff [1] was 0.001 s⁻¹, the “% inh” value [2] was 87% and the “% inh” value [3] was 83%.

B3: DLLBII019 (VHH, not shown: small tags and cut ends)
VHH: EVQLVESGGGLVQPGGSLRLSCAASGFTFGSYDMSWVRRSPGKGPEWVSSINSGGGSTYYADYVKGRFTISRDNAKNTLYLQMNSLRPEDTAVYYCAADRYIWARQGEYWGAYEYDYWGQGTLVTVSS
B3 was tested, and the Kd [4] was 1.3 nM, the koff [4] was 0.00074 s⁻¹ and the kon [4] was 570000 M⁻¹ s⁻¹. For the same binder, the IC50 [5] was 3 nM.

B4: DLLBII021 (VHH, not shown: small tags and cut ends)
VHH: B3 VHH with S40A
B4 gave a Kd [4] of 1 nM, a koff [4] of 0.00057 s⁻¹ and a kon [4] of 560000 M⁻¹ s⁻¹. It also gave an IC50 [5] of 2.1 nM.

B5: DLLBII022 (VHH, not shown: small tags and cut ends)
VHH: B3 VHH with R39Q, S40A
Binder B5 has a Kd [4] of 46 nM, a koff [4] of 0.022 s⁻¹ and a kon [4] of 470000 M⁻¹ s⁻¹. The IC50 [5] was 95.4 nM.

B6: DLLBII020 (VHH, not shown: small tags and cut ends)
VHH: B3 VHH with R39Q
Work on B6 yielded a Kd [4] of 27 nM, a koff [4] of 0.0093 s⁻¹ and a kon [4] of 340000 M⁻¹ s⁻¹. It also gave an IC50 [5] of 44.6 nM.

B7: DLLBII134D10 (VHH, not shown: small tags and cut ends)
VHH: B3 VHH with F29I, A61T, R87K, E114A, L123Q
With B7 the IC50 [6] was 1.3 nM, the “IC50, DLL4-mediated reporter assay” value [7] was 18 nM and the IC50 [8] was 1.3 nM.

B8: DLLBII133A05 (VHH)
VHH: B3 VHH with S50A, Y59F, A61T, R87K, E114Q, L123Q
B8 gave an IC50 [6] of 2.1 nM and an IC50 [8] of 2.1 nM.

B9: DLLBII95F02 (VHH)
VHH: EVQLVESGGGSVQAGGSLRLSCAASGRTFSSYAMGWFRQAPGKEREFVAAINWSGGYTYYADSVRGRFTISRDNAKNTVYLQMNSLKPEDTAVYYCAAPAPGSSGYEYDYWGQGTQVTVSS
In the case of B9, the koff [1] is reported as 0.00067 s⁻¹, the “% inh” value [2] is reported as 81% and the “% inh” value [3] is reported as 71%.

B10: DLLBII129A03 (VHH, not shown: small tags and cut ends)
VHH: EVQLVESGGGLVQAGGSLRLSCAASGRTFSSYAMAWFRQAPGKEREYVAAIRWSGGTAYYADSVQGRFTISRDNAKNTVYLQMNSLRPEDTAVYYCANRAPDTRLRPYLYDYWGQGTQVTVSS
B10 was tested, and the IC50 [6] was 1.8 nM, the Kd [9] was 0.5 nM and the “fold (off-rate vs DLLBII101G08)” value [10] was 18 fold. It also gave a koff [10] of 0.00038 s⁻¹, a Kd [11] of 0.5 nM and a koff [11] of 0.00012 s⁻¹. For the same binder, the kon [11] was 210000 M⁻¹ s⁻¹, the IC50 [8] was 1.8 nM and the “fold (off-rate vs DLLBII101G08)” value [12] was 19 fold. For the same binder, the koff [12] was 0.00012 s⁻¹.

B11: DLLBII129H07 (VHH, not shown: small tags and cut ends)
VHH: B10 VHH with F37Y, R87K, R106E, L109E
B11 was tested, and the IC50 [6] was 1 nM, the Kd [9] was 0.5 nM and the “fold (off-rate vs DLLBII101G08)” value [10] was 27 fold. The koff [10] was 0.00025 s⁻¹, the Kd [11] was 0.5 nM and the koff [11] was 7.3e-05 s⁻¹. For the same binder, the kon [11] was 160000 M⁻¹ s⁻¹, the IC50 [8] was 1 nM and the “fold (off-rate vs DLLBII101G08)” value [12] was 30 fold. For the same binder, the koff [12] was 7.4e-05 s⁻¹.

B12: DLLBII130F06 (VHH, not shown: small tags and cut ends)
VHH: B10 VHH with F37Y, R87K, R106A, L109E
In the case of B12, the IC50 [6] is reported as 1.3 nM, the Kd [9] is reported as 0.4 nM and the “fold (off-rate vs DLLBII101G08)” value [10] is reported as 19 fold. The koff [10] was 0.00026 s⁻¹, the Kd [11] was 0.4 nM and the koff [11] was 8e-05 s⁻¹. For the same binder, the kon [11] was 200000 M⁻¹ s⁻¹, the IC50 [8] was 1.3 nM and the “fold (off-rate vs DLLBII101G08)” value [12] was 27 fold. It also gave a koff [12] of 6.5e-05 s⁻¹.

B13: DLLBII130B03 (VHH, not shown: small tags and cut ends)
VHH: B10 VHH with F37Y, R87K, R106A
With B13 the IC50 [6] was 1.5 nM, the Kd [9] was 0.3 nM and the “fold (off-rate vs DLLBII101G08)” value [10] was 20 fold. For the same binder, the koff [10] was 0.00024 s⁻¹, the Kd [11] was 0.3 nM and the koff [11] was 6.8e-05 s⁻¹. The kon [11] was 220000 M⁻¹ s⁻¹, the IC50 [8] was 1.5 nM and the “fold (off-rate vs DLLBII101G08)” value [12] was 27 fold. For the same binder, the koff [12] was 6.7e-05 s⁻¹.

B14: DLLBII83G01 (VHH)
VHH: EVQLVESGGGLVQAGGSLRLSCAASGRTFSNYIMGWFRQAPGKEREFVAGISRYADYTGYADSVKGRFTISRDNVKNTVYLRMNSLKPDDTAVYYCAANEGYCSGYGCYEDSGQYDYWGQGTQVTVSS
With B14 the koff [1] was 0.00041 s⁻¹, the “% inh” value [2] was 87% and the “% inh” value [3] was 93%.

B15: VEGFBII112D11 (VHH)
VHH: EVQLVESGGGLVQPGGSLRLSCEASGRTFSSYSMGWFRQAPGKEREFVVAISKGGYKYDSVSLEGRFTISRDNAKNTVYLQINSLRPEDTAVYYCASSRAYGSSRLRLADTYEYWGQGTLVTVSS
With B15 the “% inhibition” value [13] was 100% and the IC50 [13] was 0.221 nM.

B16: VEGFBII114C09 (VHH)
VHH: B15 VHH with G16D, A24V, R71K
B16 was tested, and the “% inhibition” value [13] was 100% and the IC50 [13] was 0.215 nM.

B17: VEGFBII113A08 (VHH)
VHH: B15 VHH with P14T, A24V, R71K
In the case of B17, the “% inhibition” value [13] is reported as 100% and the IC50 [13] is reported as 0.253 nM.

B18: VEGFBII114D03 (VHH)
VHH: B15 VHH with P14T, G16D, E23A, A24V, P41Q, R71K
With B18 the “% inhibition” value [13] was 100% and the IC50 [13] was 0.227 nM.

B19: VEGFBII114D02 (VHH)
VHH: B15 VHH with P14T, A24V
B19 was tested, and the “% inhibition” value [13] was 100% and the IC50 [13] was 0.199 nM.

B20: VEGFBII118E10 (VHH)
VHH: B15 VHH with P14T, G16D, A24V, P41Q, S60A, R71K, R86K, L120Q
In the case of B20, the “% inhibition” value [13] is reported as 100% and the IC50 [13] is reported as 0.189 nM.

B21: VEGFBII113E03 (VHH)
VHH: B15 VHH with P14T, G16D, A24V, P41Q, R71K, I82M
B21 was tested, and the “% inhibition” value [13] was 100% and the IC50 [13] was 0.29 nM.
